Source: patent US20230312675A1

Assays:
Experiment in all cases: cell-based or functional assay
[1] = target: EGFR on human cell lines (A431, T98G, LN18, U87, U87high, HRCE) (human) (UniProt P00533)
[2] = target: Truncated EGFR (human EGFR containing only extracellular and transmembrane domains) (human) (UniProt P00533)
[3] = target: truncated CD19 on EL4 cells (UniProt P15391)
UniProt P15391, sequence (P15391 20-333 limits assumed): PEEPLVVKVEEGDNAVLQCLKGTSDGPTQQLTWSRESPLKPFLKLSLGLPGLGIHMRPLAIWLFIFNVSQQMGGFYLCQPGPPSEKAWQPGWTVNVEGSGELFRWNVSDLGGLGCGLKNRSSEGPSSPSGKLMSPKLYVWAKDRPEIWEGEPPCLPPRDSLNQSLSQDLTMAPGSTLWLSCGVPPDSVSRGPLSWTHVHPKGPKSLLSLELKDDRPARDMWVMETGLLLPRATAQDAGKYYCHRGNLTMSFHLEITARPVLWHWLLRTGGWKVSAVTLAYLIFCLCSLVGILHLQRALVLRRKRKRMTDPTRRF

Question: What does the source list for Cetuximab-derived CAR?
Answer: percent CAR remaining on T-cell surface after 12 hours of co-culture with U87 [1]: 68%; percent CAR remaining on T-cell surface after 12 hours of co-culture with U87high [1]: 37.4%; percent CAR remaining on T-cell surface after 48 hours of co-culture with U87 [1]: 95.5%; percent CAR remaining on T-cell surface after 48 hours of co-culture with U87high [1]: 42.6%; reduction in U87 cell number relative to controls grown without CAR+ T cells [1]: 40%; reduction in U87high cell number relative to controls grown without CAR+ T cells [1]: 80%; specific lysis of HRCE, 10:1 E:T ratio [1]: 81.1%; specific lysis of HRCE, DNA-modified T cells, 10:1 E:T ratio, 24 hrs [1]: 45.5%; specific lysis of HRCE, DNA-modified T cells, 10:1 E:T ratio, 120 hrs [1]: 51.6%; specific lysis of HRCE, RNA-modified T cells, 10:1 E:T ratio, 24 hrs [1]: 39.5%; specific lysis of HRCE, RNA-modified T cells, 10:1 E:T ratio, 120 hrs [1]: 19.8%; numeric expansion of CAR+ T cells over 28 days of co-culture with tEGFR+ K562 aAPC [2]: 1000 fold; production of IFN-γ in response to tEGFR+ EL4, DNA-modified T cells, 24 hour time point [2]: 40.3%; production of IFN-γ in response to tEGFR+ EL4, DNA-modified T cells, 120 hour time point [2]: 48.6%; production of IFN-γ in response to tEGFR+ EL4, RNA-modified T cells, 24 hours after RNA transfer [2]: 14.2%; production of IFN-γ in response to tEGFR+ EL4, RNA-modified T cells, 120 hours after RNA transfer [2]: 1.1%; proportion of tEGFR+ EL4 in 1:1 co-culture with CAR+ T cells after 5 days [2]: < 10%; specific lysis of tEGFR+ EL4 [2]: 57.5%; specific lysis of CD19+ EL4 (non-specific target) [3]: 17.3%

Question: Which results are given for Nimotuzumab-derived CAR?
Answer: percent CAR remaining on T-cell surface after 12 hours of co-culture with U87 [1]: 126%; percent CAR remaining on T-cell surface after 12 hours of co-culture with U87high [1]: 124%; percent CAR remaining on T-cell surface after 48 hours of co-culture with U87 [1]: 94.4%; percent CAR remaining on T-cell surface after 48 hours of co-culture with U87high [1]: 95.7%; reduction in U87high cell number relative to controls grown without CAR+ T cells [1]: 80%; specific lysis of HRCE, 10:1 E:T ratio [1]: 30.4%; numeric expansion of CAR+ T cells over 28 days of co-culture with tEGFR+ K562 aAPC [2]: 1000 fold; proportion of tEGFR+ EL4 in 1:1 co-culture with CAR+ T cells after 5 days [2]: 80%; specific lysis of tEGFR+ EL4 [2]: 21.2%; specific lysis of CD19+ EL4 (non-specific target) [3]: 12.3%
